Results taken from patent publication US11976099B2, “Compositions and methods for treatment of bone associated diseases” (THE NATIONAL INSTITUTE FOR BIOTECHNOLOGY IN THE NEGEV LTD., priority 2016, dated 2024).
Where a chain is given by its changes, count along the chain named. In names and notes the source's numbering stands.

B1: 5.6: bispecific M-CSFRGD variant from sort five; M-CSFM loop replaced by XXXRGDXXX motif; binds c-FMS and αvβ3 integrin (protein)
chain: EEVSEYCSHMIGSGHLQSLQRLIDTYPRGDMCSITFEFVDQEQLKDPVCYLKKAFLLVQDIMEDTMRFRDNTPNAIAIVQLQELSLRLKSCFTKDYEEHDKACVRTFYETPLQLLEKVKNVFNETKNLLDKDWNIFSKNCNNSFAECSSQGHERQSEGS
modifications: left off: small tags and cut ends
B2: M-CSFM: 158 amino acid M-CSF with cysteine at position 31 replaced by serine (SEQ ID NO: 2) (protein)
chain: EEVSEYCSHMIGSGHLQSLQRLIDSQMETSSQITFEFVDQEQLKDPVCYLKKAFLLVQDIMEDTMRFRDNTPNAIAIVQLQELSLRLKSCFTKDYEEHDKACVRTFYETPLQLLEKVKNVFNETKNLLDKDWNIFSKNCNNSFAECSSQGHERQSEGS
B3: M-CSFWT: wild-type human M-CSF, disulfide-bond-linked homodimer which binds and activates c-FMS (protein)
chain: B2 chain with S31C
B4: M-CSFC31S,M27R: M-CSF double mutant containing both C31S and M27R; monomeric, monospecific c-FMS antagonist (protein)
chain: B2 chain with M27R

Assays:
[1] = tested on: MDA-MB-231 breast cancer cells; assay: Direct cell binding assay, flow cytometry, MDA-MB-231; type: cell-based, human; conditions: for direct cell binding: 1 μM, 2.5 μM and 7.5 μM labeled protein; for relative cell binding ability: MDA-MB-231
Protocol: M-CSFM and two variants of M-CSFRGD (4.22 and 5.6) were labeled with a molar ratio of 1:1 of DyLight™ 488 NHS Ester (Thermo Fisher Scientific, USA) and the purified protein. The solution was incubated for 1 h at room temperature and the residual unbound dye was washed three times with Vivaspin (GE Healthcare life sciences, UK) with a 3,000 Da cutoff. […] MDA-MB-231 breast cancer cells were used for direct cell binding of the purified proteins. Cells were plated at a density of 10^5 per well in 96-well plates and were washed with […] of PBSA 0.1%. The cells were centrifuged at 150 g for 5 min, and the supernatant was removed; this step was repeated twice. Then, the labeled M-CSFRGD protein variants and the M-CSFM monospecific control were added in IBB+1% BSA to the cells at different concentrations (1, 2.5 and 7.5 μM) in a total volume of 100 μl and incubated at 4° C. with gentle agitation for 2 h. For c-FMS expression, the cells were stained with PE-anti human CD115 (BioLegend, USA) at a dilution of 1:50 and for αvβ3 integrin expression with FITC-anti human β3 integrin (BioLegend, USA) at a dilution of 1:25 for 30 min. Then, the cells were washed twice as described above and analyzed with Accuri C6 flow cytometry analyzer (BD Biosciences, USA). The mean fluorescence of the cells was subtracted from the other samples. The experiment was repeated three times at each concentration.
Assays for direct cell binding were conducted on breast cancer cell line MDA-MB-231 and murine primary cells with flow cytometer. MDA-MB-231 was used because the cells express αvβ3 integrin and c-FMS on the cell membrane, a protein expression pattern that imitates the osteoclast state just before reaching full differentiation and maturation. […] Murine primary cells that were obtained from bone marrow were tested for binding without any induction of differentiation (t=0). Such cells express high levels of c-FMS and low levels of αvβ3 integrin (FIGS. 11A and 11B), a state that imitates an early osteoclast differentiation stage.

[2] = Dynamic light scattering (DLS); type: physicochemical; conditions: 0.5 mg/ml; angle of 90°
Protocol: Dynamic light scattering (DLS)—The hydrodynamic radii of M-CSFWT, M-CSFC31S and M-CSFC31S,M27R were determined using DLS. The proteins, in a concentration of 0.5 mg/ml, were filtered to remove aggregates and contaminants. Light scattering was measured at an angle of 90° three times, in two different experiments, resulting in a total of six measurements. […] An analysis of the solution was conducted to verify that the most abundant specie was in the size range of 1-10 nm. The peak for this specie was compared for the three different proteins, and the hydrodynamic radius of each was determined as the maximum of the peak.
Next, the size of the M-CSF variants was evaluated in solution. M-CSFWT, M-CSFC31S and M-CSFC31S,M27R at concentrations of 0.5 mg/ml were subjected to dynamic light scattering (DLS) analysis at an angle of 90°. The peaks for the most abundant species in each sample were compared (FIG. 16B), and an estimated hydrodynamic radius was calculated from each peak. […] To confirm that the oligomeric state of M-CSFC31S,M27R is not concentration dependent, all M-CSF variants were subjected to SAXS measurements at concentrations of 3, 5 and 7 mg/ml. Of note is that the Rg values remained within a similar range for M-CSFWT and M-CSFC31S. There was a slight increase in the Rg value of M-CSFC31S,M27R at higher concentrations, presumably due to an increase in interparticle interactions. […] To illustrate the oligomeric states of these three proteins in solution, low-resolution structures were reconstructed from the SAXS data. Ab initio models were reconstructed from SAXS data using the computer program GASBOR and were averaged by the computer program DAMAVER. The crystal structure of the M-CSF dimer and the structure of the monomer were aligned with the obtained SAXS models (yellow, M-CSFWT; green, M-CSFC31S; cyan, M-CSFC31S,M27R) using PyMOL (http://www.pymol.org).

| Molecule | direct cell binding [1] | relative cell binding ability [1] | hydrodynamic radius [2] [nm] |
| --- | --- | --- | --- |
| B1 | showed binding | best binding ability |  |
| B2 | showed binding | weakest binder | 3.56±0.24 |
| B3 |  |  | 3.73±0.19 |
| B4 |  |  | 2.94±0.10 |
